Experimental data from patent US20200390859A1 (NGM BIOPHARMACEUTICALS, published 2020).

Molecular target: mouse FGFR4/β-klotho complex co-expressed in rat L6 myoblast cells (mouse, UniProt Q03142 17-799; Q99N32 1-1043)
Assay: cell-based or functional assay

mouse FGFR4/β-klotho complex co-expressed in rat L6 myoblast cells, sequence (Q03142 17-799, chain 1 of 2): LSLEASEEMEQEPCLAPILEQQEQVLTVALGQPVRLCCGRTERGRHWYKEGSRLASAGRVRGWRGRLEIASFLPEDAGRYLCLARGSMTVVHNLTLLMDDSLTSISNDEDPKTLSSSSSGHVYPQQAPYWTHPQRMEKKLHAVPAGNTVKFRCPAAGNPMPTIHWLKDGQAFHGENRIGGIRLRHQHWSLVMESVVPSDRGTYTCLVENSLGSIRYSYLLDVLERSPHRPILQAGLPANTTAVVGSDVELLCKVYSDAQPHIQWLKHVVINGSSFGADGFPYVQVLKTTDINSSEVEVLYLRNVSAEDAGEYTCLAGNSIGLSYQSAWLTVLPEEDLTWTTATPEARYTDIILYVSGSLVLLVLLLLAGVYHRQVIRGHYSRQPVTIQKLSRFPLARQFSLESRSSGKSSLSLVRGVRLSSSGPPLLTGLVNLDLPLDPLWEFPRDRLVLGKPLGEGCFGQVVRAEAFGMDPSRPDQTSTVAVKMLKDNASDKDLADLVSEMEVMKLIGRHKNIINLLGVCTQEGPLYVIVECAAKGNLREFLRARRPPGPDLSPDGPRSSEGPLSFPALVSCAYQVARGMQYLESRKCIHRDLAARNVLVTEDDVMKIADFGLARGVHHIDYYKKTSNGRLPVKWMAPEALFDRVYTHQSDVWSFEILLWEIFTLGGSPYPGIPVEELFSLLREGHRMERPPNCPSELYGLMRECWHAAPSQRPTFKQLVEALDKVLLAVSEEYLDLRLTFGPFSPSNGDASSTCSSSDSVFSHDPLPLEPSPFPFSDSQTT
mouse FGFR4/β-klotho complex co-expressed in rat L6 myoblast cells, sequence (Q99N32 whole entry, chain 2 of 2): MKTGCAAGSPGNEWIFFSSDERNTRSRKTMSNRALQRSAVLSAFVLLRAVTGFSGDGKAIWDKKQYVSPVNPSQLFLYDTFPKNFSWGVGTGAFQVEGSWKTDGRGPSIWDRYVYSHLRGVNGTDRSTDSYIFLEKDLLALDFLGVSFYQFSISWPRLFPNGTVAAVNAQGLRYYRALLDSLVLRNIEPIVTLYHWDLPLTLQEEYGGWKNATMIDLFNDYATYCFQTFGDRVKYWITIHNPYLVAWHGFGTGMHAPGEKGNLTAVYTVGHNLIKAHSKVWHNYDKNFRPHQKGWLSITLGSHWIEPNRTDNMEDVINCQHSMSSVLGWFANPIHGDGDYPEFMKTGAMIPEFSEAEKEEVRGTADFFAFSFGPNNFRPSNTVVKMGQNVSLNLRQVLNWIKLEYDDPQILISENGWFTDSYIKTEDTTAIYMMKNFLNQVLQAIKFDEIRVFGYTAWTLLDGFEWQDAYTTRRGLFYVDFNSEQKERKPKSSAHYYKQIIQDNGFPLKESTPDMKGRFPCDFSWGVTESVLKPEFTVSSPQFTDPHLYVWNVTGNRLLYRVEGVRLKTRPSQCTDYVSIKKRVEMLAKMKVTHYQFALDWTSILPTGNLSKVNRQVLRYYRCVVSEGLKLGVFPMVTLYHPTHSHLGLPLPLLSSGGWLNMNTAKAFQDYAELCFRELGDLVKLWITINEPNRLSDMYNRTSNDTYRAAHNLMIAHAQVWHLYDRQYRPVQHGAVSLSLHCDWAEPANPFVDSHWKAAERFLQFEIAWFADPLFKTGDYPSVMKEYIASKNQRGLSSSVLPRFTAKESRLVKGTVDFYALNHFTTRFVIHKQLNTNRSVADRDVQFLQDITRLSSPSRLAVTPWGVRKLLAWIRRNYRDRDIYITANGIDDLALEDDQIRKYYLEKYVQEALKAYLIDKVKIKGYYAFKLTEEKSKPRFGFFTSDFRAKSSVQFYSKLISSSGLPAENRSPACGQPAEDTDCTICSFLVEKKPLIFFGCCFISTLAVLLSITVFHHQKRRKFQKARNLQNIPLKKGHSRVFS

B1: M70 (FGF19 variant) (ligand)
chain: MRDSSPLVHYGWGDPIRLRHLYTSGPHGLSSCFLRIRADGVVDCARGQSAHSLLEIKAVALRTVAIKGVHSVRYLCMGADGKMQGLLQYSEEDCAFEEEIRPDGYNVYRSEKHRLPVSLSSAKQRQLYKNRGFLPLSHFLPMLPMVPEEPEDLRGHLESDMFSSPLETDSMDPFGLVTGLEAVRSPSFEK
  EC50 (pM), ELK1 luciferase reporter in L6 cells transfected with mouse FGFR4 and β-klotho: 38.3 pM
  Emax (fold potentiation), ELK1 luciferase reporter in L6 cells transfected with mouse FGFR4 and β-klotho: 1.85 fold potentiation
